T1: USH1C_2, Q9Y6N9
T1 sequence (Q9Y6N9 206-303, limits assumed, looked up): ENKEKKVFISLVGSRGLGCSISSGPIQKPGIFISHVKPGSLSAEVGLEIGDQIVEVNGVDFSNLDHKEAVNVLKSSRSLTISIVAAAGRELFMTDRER

T2: SIPA1L3, O60292
T2 sequence (O60292 961-1052, limits assumed, looked up): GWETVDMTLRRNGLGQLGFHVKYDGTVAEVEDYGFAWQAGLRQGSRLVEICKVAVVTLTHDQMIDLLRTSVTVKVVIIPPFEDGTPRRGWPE

T3: CNKSR1, Q969H4
T3 sequence (Q969H4 191-295, limits assumed, looked up): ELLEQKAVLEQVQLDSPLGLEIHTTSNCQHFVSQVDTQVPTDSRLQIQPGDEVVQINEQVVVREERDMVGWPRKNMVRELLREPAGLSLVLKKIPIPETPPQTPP

T4: RGS12, O14924
T4 sequence (O14924 17-108, limits assumed, looked up): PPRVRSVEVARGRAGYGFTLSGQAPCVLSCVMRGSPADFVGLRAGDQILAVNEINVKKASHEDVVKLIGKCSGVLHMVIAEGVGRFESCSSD

T5: GRIP1_1, Q9Y3R0
T5 sequence (Q9Y3R0 48-146, limits assumed, looked up): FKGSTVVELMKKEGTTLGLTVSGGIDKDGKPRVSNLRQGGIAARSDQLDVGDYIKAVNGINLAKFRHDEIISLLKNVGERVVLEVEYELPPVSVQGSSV

T6: SHROOM3, Q8TF72
T6 sequence (Q8TF72 20-120, limits assumed, looked up): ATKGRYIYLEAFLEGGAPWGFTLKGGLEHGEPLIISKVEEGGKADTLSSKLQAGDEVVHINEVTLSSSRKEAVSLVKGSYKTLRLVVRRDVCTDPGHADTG

T7: PDZD2_4, O15018
T7 sequence (O15018 723-823, limits assumed, looked up): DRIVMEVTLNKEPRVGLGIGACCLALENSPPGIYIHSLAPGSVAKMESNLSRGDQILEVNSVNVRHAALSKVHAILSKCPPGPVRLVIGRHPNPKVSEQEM

T8: PDZD4, Q76G19
T8 sequence (Q76G19 125-224, limits assumed, looked up): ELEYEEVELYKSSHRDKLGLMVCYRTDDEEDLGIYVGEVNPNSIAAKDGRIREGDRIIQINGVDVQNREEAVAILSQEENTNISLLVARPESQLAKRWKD

T9: MPDZ_2, O75970
T9 sequence (O75970 252-347, limits assumed, looked up): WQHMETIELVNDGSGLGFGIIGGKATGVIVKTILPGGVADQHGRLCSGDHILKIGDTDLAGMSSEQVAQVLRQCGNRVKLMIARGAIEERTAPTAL

T10: TJP3_2, O95049
T10 sequence (O95049 190-282, limits assumed, looked up): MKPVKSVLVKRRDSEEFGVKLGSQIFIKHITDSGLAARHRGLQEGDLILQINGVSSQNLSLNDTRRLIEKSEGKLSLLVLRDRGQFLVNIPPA

T11: PDZD11, Q5EBL8
T11 sequence (Q5EBL8 42-139, limits assumed, looked up): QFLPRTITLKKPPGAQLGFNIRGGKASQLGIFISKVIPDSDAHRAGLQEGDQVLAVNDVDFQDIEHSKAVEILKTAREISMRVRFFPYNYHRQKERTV

T12: MAGI2_1, Q86UL8
T12 sequence (Q86UL8 12-111, limits assumed, looked up): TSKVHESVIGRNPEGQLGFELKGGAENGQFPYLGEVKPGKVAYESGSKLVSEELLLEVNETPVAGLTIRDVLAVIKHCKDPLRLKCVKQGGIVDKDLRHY


Assays:
Assay in all cases: holdup assay
Parameters in all cases: key: below the threshold = too weak to quantify, mostly under pKd 3.1 to 4
Conditions in all cases: plain residues with an end cap or a label only (N-terminal biotin on a linker: ttds)
USH1C_2, Q9Y6N9 = target: T1, USH1C_2, Q9Y6N9
SIPA1L3, O60292 = target: T2, SIPA1L3, O60292
PARD3_1, Q8TEW0 = target: PARD3_1, Q8TEW0
CNKSR1, Q969H4 = target: T3, CNKSR1, Q969H4
RGS12, O14924 = target: T4, RGS12, O14924
MAGI1_5, Q96QZ7 = target: MAGI1_5, Q96QZ7
RGS3, P49796-9 = target: RGS3, P49796-9
GRIP1_1, Q9Y3R0 = target: T5, GRIP1_1, Q9Y3R0
GRIP2_2, Q9C0E4 = target: GRIP2_2, Q9C0E4
PDZRN4_2, Q6ZMN7 = target: PDZRN4_2, Q6ZMN7
SHROOM3, Q8TF72 = target: T6, SHROOM3, Q8TF72
GIPC3, Q8TF64 = target: GIPC3, Q8TF64
PDZD2_4, O15018 = target: T7, PDZD2_4, O15018
PDZD4, Q76G19 = target: T8, PDZD4, Q76G19
PTPN13_2, Q12923 = target: PTPN13_2, Q12923
Inadl_7, Q8NI35 = target: Inadl_7, Q8NI35
RIMS2, Q9UQ26 = target: RIMS2, Q9UQ26
MAGI3_5, Q5TCQ9 = target: MAGI3_5, Q5TCQ9
MAGIX, Q9H6Y5 = target: MAGIX, Q9H6Y5
MAST3, O60307 = target: MAST3, O60307
MPDZ_2, O75970 = target: T9, MPDZ_2, O75970
TJP3_2, O95049 = target: T10, TJP3_2, O95049
PDZD11, Q5EBL8 = target: T11, PDZD11, Q5EBL8
MAGI2_1, Q86UL8 = target: T12, MAGI2_1, Q86UL8
DLG2_1, Q15700 = target: DLG2_1, Q15700

Chain of RGS3, P49796-9 (P49796 other isoform, or with tags, fused parts or gaps): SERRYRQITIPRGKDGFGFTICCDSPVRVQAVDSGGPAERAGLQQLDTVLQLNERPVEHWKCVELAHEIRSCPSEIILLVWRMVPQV
Chain of GIPC3, Q8TF64 (Q8TF64 107-202): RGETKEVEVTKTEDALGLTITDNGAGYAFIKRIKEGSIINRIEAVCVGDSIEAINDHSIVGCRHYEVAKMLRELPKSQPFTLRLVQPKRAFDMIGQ
Chain of MAGIX, Q9H6Y5 (Q9H6Y5 118-211): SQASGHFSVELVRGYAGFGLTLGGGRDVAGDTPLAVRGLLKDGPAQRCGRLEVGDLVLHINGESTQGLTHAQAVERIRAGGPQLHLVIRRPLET
Chain of GRIP2_2, Q9C0E4 (Q9C0E4 137-245): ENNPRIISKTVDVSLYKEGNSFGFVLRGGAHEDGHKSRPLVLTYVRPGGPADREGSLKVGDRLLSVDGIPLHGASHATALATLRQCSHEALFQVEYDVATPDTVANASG
Chain of Inadl_7, Q8NI35 (Q8NI35 1219-1332): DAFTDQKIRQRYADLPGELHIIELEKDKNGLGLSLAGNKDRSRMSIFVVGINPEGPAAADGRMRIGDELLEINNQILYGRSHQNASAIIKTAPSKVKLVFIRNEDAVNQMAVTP
Chain of RIMS2, Q9UQ26 (Q9UQ26 637-758): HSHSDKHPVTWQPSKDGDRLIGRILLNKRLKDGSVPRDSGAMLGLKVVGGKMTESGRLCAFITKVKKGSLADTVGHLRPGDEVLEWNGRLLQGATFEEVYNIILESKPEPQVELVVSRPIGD
Chain of PTPN13_2, Q12923 (Q12923 1363-1462): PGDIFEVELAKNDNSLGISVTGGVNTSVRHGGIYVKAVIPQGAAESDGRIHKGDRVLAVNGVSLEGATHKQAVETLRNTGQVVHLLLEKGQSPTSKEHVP
Chain of MAGI1_5, Q96QZ7 (Q96QZ7 986-1098): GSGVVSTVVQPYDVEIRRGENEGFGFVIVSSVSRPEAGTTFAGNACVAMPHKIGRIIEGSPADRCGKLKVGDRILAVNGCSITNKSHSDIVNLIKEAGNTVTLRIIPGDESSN
Chain of MAGI3_5, Q5TCQ9 (Q5TCQ9 847-941): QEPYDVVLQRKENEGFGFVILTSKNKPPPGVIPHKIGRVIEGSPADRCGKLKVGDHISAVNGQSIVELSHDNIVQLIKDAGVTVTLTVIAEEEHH
Chain of PDZRN4_2, Q6ZMN7 (Q6ZMN7 389-498): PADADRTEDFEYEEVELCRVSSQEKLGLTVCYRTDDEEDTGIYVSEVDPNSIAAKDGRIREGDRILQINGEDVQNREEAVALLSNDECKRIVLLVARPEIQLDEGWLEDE
Chain of PARD3_1, Q8TEW0 (Q8TEW0 264-372): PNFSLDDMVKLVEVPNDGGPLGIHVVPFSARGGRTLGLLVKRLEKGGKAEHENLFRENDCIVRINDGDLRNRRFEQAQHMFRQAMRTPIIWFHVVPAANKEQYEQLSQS
Chain of MAST3, O60307 (O60307 945-1048): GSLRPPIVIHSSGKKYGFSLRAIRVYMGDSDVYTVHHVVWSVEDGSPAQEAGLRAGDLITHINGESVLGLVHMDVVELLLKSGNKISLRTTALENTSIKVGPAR

| Binder | pKd (USH1C_2, Q9Y6N9) | pKd (SIPA1L3, O60292) | pKd (PARD3_1, Q8TEW0) | pKd (CNKSR1, Q969H4) | pKd (RGS12, O14924) | pKd (MAGI1_5, Q96QZ7) | pKd (RGS3, P49796-9) | pKd (GRIP1_1, Q9Y3R0) | pKd (GRIP2_2, Q9C0E4) | pKd (PDZRN4_2, Q6ZMN7) | pKd (SHROOM3, Q8TF72) | pKd (GIPC3, Q8TF64) | pKd (PDZD2_4, O15018) | pKd (PDZD4, Q76G19) | pKd (PTPN13_2, Q12923) | pKd (Inadl_7, Q8NI35) | pKd (RIMS2, Q9UQ26) | pKd (MAGI3_5, Q5TCQ9) | pKd (MAGIX, Q9H6Y5) | pKd (MAST3, O60307) | also measured |
| --- | --- | --- | --- | --- | --- | --- | --- | --- | --- | --- | --- | --- | --- | --- | --- | --- | --- | --- | --- | --- | --- |
| SSLQSLETSV [ATP2B4, P23634] | below the threshold | below the threshold | below the threshold | below the threshold | below the threshold | 4.66 | below the threshold | below the threshold | below the threshold | 4.24 | below the threshold | below the threshold | below the threshold | below the threshold | 4.45 | below the threshold | below the threshold | below the threshold | below the threshold | below the threshold | pKd (MPDZ_2, O75970): below the threshold; pKd (TJP3_2, O95049): below the threshold; pKd (PDZD11, Q5EBL8): below the threshold; pKd (MAGI2_1, Q86UL8): below the threshold; pKd (DLG2_1, Q15700): 4.94 |
| RLQRRRETQV [HPV18-E6, P06463] | below the threshold | below the threshold | below the threshold | below the threshold | 4.35 | below the threshold | below the threshold | below the threshold | 4.48 | below the threshold | below the threshold | below the threshold | below the threshold | below the threshold | below the threshold | below the threshold | below the threshold | below the threshold | below the threshold | below the threshold | pKd (MPDZ_2, O75970): below the threshold; pKd (TJP3_2, O95049): below the threshold; pKd (PDZD11, Q5EBL8): below the threshold; pKd (MAGI2_1, Q86UL8): below the threshold; pKd (DLG2_1, Q15700): 5.11 |
| RHTTSTETAV [HPV30-E6, P36809] | below the threshold | below the threshold | below the threshold | below the threshold | below the threshold | 5.02 | below the threshold | 4.59 | below the threshold | 4.48 | below the threshold | below the threshold | 4.78 | below the threshold | below the threshold | below the threshold | below the threshold | below the threshold | 5.35 | below the threshold | pKd (MPDZ_2, O75970): below the threshold; pKd (TJP3_2, O95049): below the threshold; pKd (PDZD11, Q5EBL8): below the threshold; pKd (MAGI2_1, Q86UL8): below the threshold; pKd (DLG2_1, Q15700): 4.84 |
